# Assay results published in paper doi:10.1101/2021.10.27.466080, “The structure of a native orthobunyavirus ribonucleoprotein reveals a key role for viral RNA in maintaining its helical architecture” (bioRxiv, 2021).
# B1: Bunyamwera virus (BUNV) nucleocapsid protein (NP) (natural protein)
# chain: MIELEFHDVAANTSSTFDPEVAYANFKRVHTTGLSYDHIRIFYIKGREIKTSLAKRSEWEVTLNLGGWKITVYNTNFPGNRNNPVPDDGLTLHRLSGFLARYLLEKMLKVSEPEKLIIKSKIINPLAEKNGITWNDGEEVYLSFFPGSEMFLGTFRFYPLAIGIYKVQRKEMEPKYLEKTMRQRYMGLEAATWTVSKLTEVQSALTVVSSLGWKKTNVSAAARDFLAKFGINM
# notes: Nucleocapsid protein (NP) of Bunyamwera virus, as it stands in native ribonucleoproteins (RNPs) with the genomic RNA; NP stands in the RNP as a helical polymer wrapped around viral genomic RNA (S, M, L segments); about 3.7 NP per helical turn; The number of copies depends on the segment; also called BUNV NP; nucleoprotein; source: native RNPs purified from BUNV virions propagated in BHK-21 cells …
# Target: the molecule itself
# Test: cryo-EM structure; native BUNV RNPs purified from virions, TNE with 25 mM NaCl; cryo-ET sub-tomogram average (20 Å) used as reference for a single-particle average with helical symmetry at 13 Å; 'split' NP from PDB 3ZLA fitted flexibly by molecular dynamics (MDFF)
protein,measurement,value
B1,binding result,binds
